Test results taken from CN105524169A (UNIV NANCHANG, dated 2016).

Columns and labels:
[1] = target: T1, PSMA on LNCaP prostate cancer cells (UniProt Q04609 1-750, limits assumed); experiment: cell ELISA on fixed LNCaP (PSMA+) against MKN45 (PSMA-) cells, HRP-anti-M13, OD450
T1 construct: whole, on cells; Cells fixed with 4% paraformaldehyde before the assay; also called 前列腺特异性膜抗原; LNCaP细胞(表达PSMA)

[2] = target: T2, PSMA胞外区蛋白 (recombinant extracellular region of prostate specific membrane antigen, expressed in HEK-293) (UniProt Q04609 44-750, limits assumed); experiment: indirect phage ELISA, PSMA extracellular region protein coated at 5 μg/mL, HRP-anti-M13 detection
T2 construct: extracellular domain; also called 前列腺特异性膜抗原膜外区; PSMA蛋白
T2 sequence (Q04609 44-750 limits assumed): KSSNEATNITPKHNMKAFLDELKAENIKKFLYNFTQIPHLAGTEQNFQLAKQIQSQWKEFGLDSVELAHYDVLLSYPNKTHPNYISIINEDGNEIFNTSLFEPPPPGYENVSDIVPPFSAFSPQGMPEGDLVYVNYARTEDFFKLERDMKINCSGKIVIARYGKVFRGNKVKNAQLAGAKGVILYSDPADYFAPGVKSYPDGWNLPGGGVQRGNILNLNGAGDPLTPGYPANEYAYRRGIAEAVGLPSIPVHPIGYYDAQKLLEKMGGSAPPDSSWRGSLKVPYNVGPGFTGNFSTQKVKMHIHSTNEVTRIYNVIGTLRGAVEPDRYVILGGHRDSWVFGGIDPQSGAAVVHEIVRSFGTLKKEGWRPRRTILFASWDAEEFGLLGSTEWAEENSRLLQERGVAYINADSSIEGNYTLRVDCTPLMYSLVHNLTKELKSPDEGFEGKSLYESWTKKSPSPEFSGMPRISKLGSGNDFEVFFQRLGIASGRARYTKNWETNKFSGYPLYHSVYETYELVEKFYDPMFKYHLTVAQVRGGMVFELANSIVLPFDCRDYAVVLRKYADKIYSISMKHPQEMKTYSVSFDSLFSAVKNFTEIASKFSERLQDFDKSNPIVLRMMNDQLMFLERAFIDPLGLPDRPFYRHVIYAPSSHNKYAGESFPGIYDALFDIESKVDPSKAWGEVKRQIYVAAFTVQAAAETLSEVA

T1 sequence (Q04609 whole entry): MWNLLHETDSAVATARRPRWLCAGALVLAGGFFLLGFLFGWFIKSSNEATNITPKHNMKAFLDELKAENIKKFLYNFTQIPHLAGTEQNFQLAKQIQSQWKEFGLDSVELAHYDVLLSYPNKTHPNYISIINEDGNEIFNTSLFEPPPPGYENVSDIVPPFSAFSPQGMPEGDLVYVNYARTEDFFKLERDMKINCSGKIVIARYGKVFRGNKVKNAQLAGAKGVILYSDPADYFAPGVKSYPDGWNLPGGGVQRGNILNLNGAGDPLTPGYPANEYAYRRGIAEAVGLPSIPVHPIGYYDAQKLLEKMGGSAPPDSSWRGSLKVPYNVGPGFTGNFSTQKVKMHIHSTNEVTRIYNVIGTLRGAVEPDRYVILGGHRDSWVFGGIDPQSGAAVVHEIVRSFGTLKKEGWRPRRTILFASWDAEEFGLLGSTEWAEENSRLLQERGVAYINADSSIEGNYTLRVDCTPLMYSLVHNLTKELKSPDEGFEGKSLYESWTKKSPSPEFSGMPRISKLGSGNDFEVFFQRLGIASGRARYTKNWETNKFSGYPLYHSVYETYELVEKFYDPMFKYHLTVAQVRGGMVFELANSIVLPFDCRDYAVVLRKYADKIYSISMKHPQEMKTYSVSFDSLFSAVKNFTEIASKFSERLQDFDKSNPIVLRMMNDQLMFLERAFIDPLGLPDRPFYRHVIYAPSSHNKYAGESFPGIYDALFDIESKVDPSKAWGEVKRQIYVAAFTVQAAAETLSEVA

B1: 抗前列腺特异性膜抗原单域重链抗体噬菌体阳性克隆 (phage clone displaying the anti-PSMA single-domain heavy-chain antibody) (VHH)
VHH: QVQLVESGGGLVQAGGSLRLSCAASGRTISRYAVGWFRQAPGKDREFVAGITRSSSLTGYTDSVKGRFTISRDNAENTVYLQMNSLKPEDTAVYYCAGGPGSYKYWGKGTQVTVSS
notes: detected with anti-M13 antibodies; also called 展示本发明所述纳米抗体的噬菌体克隆; not shown: hinge/linker and coat protein fusion are not described
Does B1 bind [1]?
Result: binds

Does B1 bind [2]?
Result: binds
